Patent US11827701B2, “IL-6 binding molecules” (argenx BV, priority 2012, dated 2023)
Blank lines part the entries; values can stand above or below the molecule they belong to.

Tests used:
[1] = target: biotinylated (prokaryotic) IL-6 (Homo sapiens, UniProt P05231); assay: Surface plasmon resonance (Biacore), biotinylated IL-6 captured on streptavidin sensor chip; type: binding; details: purified Fab
Experimental: The binding kinetics of IL-6-specific Fabs that were able to cross-compete with the B-E8 antibody was assessed using surface plasmon resonance (Biacore). Specifically, biotinylated (prokaryotic) IL-6 was captured on a streptavidin biacore sensor chip (CM5-SA) and different concentrations of purified Fabs were injected during 3 minutes following by a 5 minute wash with buffer. From the washing phase the off-rate (kd) was determined, while from the injection phase the on-rate (ka) was calculated using the concentration and off-rate as parameters. […] The binding kinetics of antagonistic purified Fabs (Table 3) and periplasmic fractions of Fab-expressing bacteria (Table 4) were also evaluated by surface plasmon resonance (Biacore) using both bacterially and eukaryotically produced human IL-6 directly coated on a CM5 chip. The Fabs tested had off-rates between 6×10^−4 and 2×10^−5 s^−1.

IL-6 = assay: Serum amyloid A (SAA) mouse model, induction by injected IL-6; type: in vivo; set-up: SAA, Mean / SAA, Mouse1 / SAA, Mouse2 / SAA, Mouse3 / SAA, Mouse4 / SAA, Mouse5 / SAA, Mouse6: unit not given here; details: 0.1 μg IL-6; for SAA, Mean: mean of 6 mice
Experimental: The in vivo efficacy of clones 68F2 and 61H7 was further investigated by measuring the ability of these antibodies to block serum amyloid A (SAA) induction in response to injected IL-6. General methods for performing this assay are set forth in WO2006/119115A2, which is hereby incorporated by reference in its entirety. […] Four hours after administration of the antibody, the mice were injected with 0.1 ug of IL-6. After a further 16 hours, blood was taken from the mice and the concentration of Serum Amyloid A was determined by ELISA. The dose responses are also graphically depicted in FIG. 13.

biotinylated (prokaryotic) IL-6, sequence (P05231 30-212): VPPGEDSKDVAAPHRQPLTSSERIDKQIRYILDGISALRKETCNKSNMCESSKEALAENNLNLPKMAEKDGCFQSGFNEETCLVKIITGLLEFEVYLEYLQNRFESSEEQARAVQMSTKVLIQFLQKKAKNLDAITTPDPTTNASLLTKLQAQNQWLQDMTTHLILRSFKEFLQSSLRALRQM

KA [1]: 1.72e+08 M⁻¹
Rmax [1]: 48.2 RU
ka [1]: 288000 M⁻¹ s⁻¹
kd [1]: 0.00168 s⁻¹
B1: 20A4: antagonistic IL-6-specific Fab clone, parental of 68F2 (antibody, listed as Lama glama, V domains shown)
VH: EVQLQESGPGLVKPSQTLSLTCTVSGGSITTRYYAWSWIRQPPGKGLEWMGVIDYDGDTYYSPSLKSRTSISWDTSKNQFSLQLSSVTPEDTAVYYCARDPDVVTGFHYDYWGQGTQVTVSS
VL: ALNFMLTQPPSVSGTLGKTVTISCAGTSSDIGGYNYVSWYQQLPGTAPKLLIHRVSTRASGIPDRFSGSKSGNTASLTISGLRSEDEANYYCASYRNFNNAVFGGGTQLTVLG

KA [1]: 4.04e+07 M⁻¹
Rmax [1]: 22.6 RU
ka [1]: 101000 M⁻¹ s⁻¹
kd [1]: 0.0025 s⁻¹
B2: 28C6: antagonistic IL-6-specific Fab clone from immunized llama (antibody, listed as Lama glama, V domains shown)
VH: QVQLVESGGGLVQPGGSLRLSCAASGFTFSNYYMTWVRQAPGKGLEWVSSIYSFSGDTAYADSVKGRFTISRDNAKNTLYLQMNKLKSEDTAVYYCTRDLGGVVVTANGYDYWGQGTQVTVSS
VL: DIVMTQTPSSLSASLGDRVTITCQASQSISTELSWYQQKPGQTPKLLIYGASRLQTGVPARFSGSGSGTSFTLTISGLEAEDLATYYCLQDYSWPYSFGSGTRL

KA [1]: 7.05e+07 M⁻¹
Rmax [1]: 22.1 RU
ka [1]: 55200 M⁻¹ s⁻¹
kd [1]: 0.000784 s⁻¹
B3: 18C11: antagonistic IL-6-specific Fab clone from immunized llama (antibody, listed as Lama glama, V domains shown)
VH: EVQLVESGGGLVQPGGSLRLSCAASGFTFSSYAMSWVRQAPGKGLEWVSAINSGGGSTSYADSVKGRFTISRDNAKNTLYLQMNSLKPEDTAVYYCAKEGDTGWKDPMYDYWGQGTQVTVSS
VL: QSVVTQPSALSVTLGQTAKITCQGGGLRSSYAHWYQQKPGQAPVLVIYDDDSRPSGIPERFSGSSSGGRATLTISGAQAEDEGDYYCQSADSSGNAAVFGGGTHLTVLG

KA [1]: 4.67e+07 M⁻¹
Rmax [1]: 49.9 RU
ka [1]: 55600 M⁻¹ s⁻¹
kd [1]: 0.00119 s⁻¹
B4: 18C9: antagonistic IL-6-specific Fab clone from immunized llama (antibody, listed as Lama glama, V domains shown)
VH: EVQLVESGGGLVQPGGSLRLSCAASGFTFSRNAMSWVRQAPGKGLEWVSAINSGGGSTSYADSVKGRFTISRDNAKNTLYLQMNSLKPEDTAVYYCAKEGYTGWKDPMYDYWGQGTQVTVSS
VL: LNFMLTQPSALSVTLGQTAKITCQGGSLGSRYAHWYQQKPGQAPVLVIYDDDSRPSGIPERFSGSSSGGRATLTISGAQAEDDGDYYCQSADSSGNASVFGGGTHLTVLG

KA [1]: 6.18e+07 M⁻¹
Rmax [1]: 51.5 RU
ka [1]: 48400 M⁻¹ s⁻¹
kd [1]: 0.000784 s⁻¹
B5: 18F8: antagonistic IL-6-specific Fab clone from immunized llama (antibody, listed as Lama glama, V domains shown)
VH: EVQLVESGGGLVQPGGSLRLSCAASGFTFSRNAMSWVRQAPGKGLEWVSAINSGGGSTSYADSVKGRFTISRDNAKNTLYLQMNSLKPEDTAVYYCAKEGYTGWKDPMYDYWGQGTQVTVSS
VL: QSALTQPSALSVTLGQTAKITCQGGSLGSRYAHWYQQKPGQAPVLVIYDDDSRPSGIPERFSGSSSGGRATLTISGAQAEDEGDYYCQSADTSEHIVFGGGTHLTVLG

KA [1]: 1.51e+09 M⁻¹
Rmax [1]: 38.1 RU
ka [1]: 133000 M⁻¹ s⁻¹
kd [1]: 8.77e-05 s⁻¹
off-rates (range) [1]: ~10^−5 s^−1
Kd ([1]; read-out: affinities): 0.66 nM
B6: 24C9: antagonistic IL-6-specific Fab clone from immunized llama (antibody, listed as Lama glama, V domains shown)
VH: QVQLVESGGGLVQPGGSLRLSCAASGFTFSSYRMYWVRQPPGKGLEWVSAISAGGGSTYYGDSVKGRFTISRDNAKNTVYLQMNSLKPEDTALYYCKKSTWADGESDYWGQGTQVTVSS
VL: QTVVTQEPSLSVSPGGTVTLTCGLSSGSVTASNYPGWFQQTPGQAPRALIYSTNDRHSGVPSRFSGSISGNKAALTITGAQPEDEADYYCALDIGDITEFGGGTHLTVLG

KA [1]: 8.38e+08 M⁻¹
Rmax [1]: 41 RU
ka [1]: 117000 M⁻¹ s⁻¹
kd [1]: 0.000139 s⁻¹
B7: 24E9: antagonistic IL-6-specific Fab clone from immunized llama (antibody, listed as Lama glama, V domains shown)
VH: EVQLVESGGGLVQPGGSLRLSCAASGFTFSTYAMSWVRQAPGKGPEWVSRISSGGGSTNYADSVKGRFTISRDNAKKTLYLQMKSLKPEDTAVYYCANRAGWGMGDYWGQGTQVTVSS
VL: QTVVTQEPSLSVSPGGTVTLTCGLSSGSVTASNYPGWFQQTPGQAPRALIYSTNDRHSGVPSRFSGSISGNKAALTITGAQPEDEADYYCALDIGDITEFGGGTHLTVLG

B8: CNTO 136 (antibody, chains of the INN, looked up, V domains shown)
VH: EVQLVESGGGLVQPGGSLRLSCAASGFTFSPFAMSWVRQAPGKGLEWVAKISPGGSWTYYSDTVTGRFTISRDNAKNSLYLQMNSLRAEDTAVYYCARQLWGYYALDIWGQGTTVTVSS
VL: EIVLTQSPATLSLSPGERATLSCSASISVSYMYWYQQKPGQAPRLLIYDMSNLASGIPARFSGSGSGTDFTLTISSLEPEDFAVYYCMQWSGYPYTFGGGTKVEIK
SAA, Mouse1 (IL-6; Ab dose/mouse 0.31 μg): 158
SAA, Mouse2 (IL-6; Ab dose/mouse 0.31 μg): 175
SAA, Mouse3 (IL-6; Ab dose/mouse 0.31 μg): 161
SAA, Mouse4 (IL-6; Ab dose/mouse 0.31 μg): 134
SAA, Mouse5 (IL-6; Ab dose/mouse 0.31 μg): 183
SAA, Mouse6 (IL-6; Ab dose/mouse 0.31 μg): 171
SAA, Mean (IL-6; Ab dose/mouse 0.31 μg): 163.7
SAA, Mouse1 (IL-6; Ab dose/mouse 1.25 μg): 107
SAA, Mouse2 (IL-6; Ab dose/mouse 1.25 μg): 54
SAA, Mouse3 (IL-6; Ab dose/mouse 1.25 μg): 67
SAA, Mouse4 (IL-6; Ab dose/mouse 1.25 μg): 56
SAA, Mouse5 (IL-6; Ab dose/mouse 1.25 μg): 62
SAA, Mouse6 (IL-6; Ab dose/mouse 1.25 μg): 71
SAA, Mean (IL-6; Ab dose/mouse 1.25 μg): 69.5
SAA, Mouse1 (IL-6; Ab dose/mouse 5 μg): 80
SAA, Mouse2 (IL-6; Ab dose/mouse 5 μg): 80
SAA, Mouse3 (IL-6; Ab dose/mouse 5 μg): 45
SAA, Mouse4 (IL-6; Ab dose/mouse 5 μg): 55
SAA, Mouse5 (IL-6; Ab dose/mouse 5 μg): 70
SAA, Mouse6 (IL-6; Ab dose/mouse 5 μg): 84
SAA, Mean (IL-6; Ab dose/mouse 5 μg): 69.0
